Results as given in patent publication US20260008817A1, “CYCLIC PEPTIDE OR SALT THEREOF, AND USES THEREOF” (FUJIFILM Corporation, priority 2023, published 2026).
Positions of bridges follow the written chain, without caps; N, C: chain ends. No end group written: not given here. COCH2 = acetyl group that carries the bridge

These substances were tested against T1, Recombinant Human FGFR1 alpha (IIIc) Fc Chimera Protein (Homo sapiens, UniProt P11362) (assay: ELISA binding affinity of enzymatically synthesized peptide to FGFR). Conditions: ELISA luminescence signal at 10 nmol/L peptide, SEQ ID NO: 239 standardized to 1; enzyme synthesis product.
T1 construct: purchased R&D systems 658-FR-050
T1 sequence (P11362 with tags, fused parts or gaps limits assumed): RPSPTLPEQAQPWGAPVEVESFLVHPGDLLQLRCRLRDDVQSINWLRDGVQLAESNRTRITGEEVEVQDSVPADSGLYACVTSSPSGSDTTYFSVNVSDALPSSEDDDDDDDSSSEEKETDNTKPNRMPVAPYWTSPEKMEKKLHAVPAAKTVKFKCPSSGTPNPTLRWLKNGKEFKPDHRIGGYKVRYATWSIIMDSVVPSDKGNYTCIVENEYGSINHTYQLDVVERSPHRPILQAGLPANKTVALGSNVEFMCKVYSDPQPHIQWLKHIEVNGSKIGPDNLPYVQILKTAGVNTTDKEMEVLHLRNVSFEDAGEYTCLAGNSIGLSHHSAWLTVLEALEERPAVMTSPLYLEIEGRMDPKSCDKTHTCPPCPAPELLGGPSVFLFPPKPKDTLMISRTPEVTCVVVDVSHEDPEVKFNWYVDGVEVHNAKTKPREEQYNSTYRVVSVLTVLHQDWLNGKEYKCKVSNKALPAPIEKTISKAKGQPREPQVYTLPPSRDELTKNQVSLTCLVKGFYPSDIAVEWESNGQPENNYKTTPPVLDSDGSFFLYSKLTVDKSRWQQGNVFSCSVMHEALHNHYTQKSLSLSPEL
Summary of the method: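 Cell-free PUREfrex-translated cyclic peptides (Myc/HiBiT-tagged, quantified by HiBiT luminescence) bound 3 h at room temperature to immobilized FGFR1α(IIIc)-Fc, detected with anti-Myc and chemiluminescence. FGFR-specific signal at 10 nmol/L normalized to a reference cyclic peptide and graded A–D.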

Row | Substance | Evaluation result of binding affinity to FGFR
1 | 156 (ICVYTFDAHAHQLHAALTK(COCH2)I; thioether 2-19 (inferred)) [compound 156] | A (0.7 or more)
2 | 157 (ICVYTFDAHAHTLHAALTK(COCH2)I; thioether 2-19 (inferred)) [compound 157] | A (0.7 or more)
3 | 158 (ICVYTFDAHAHDLHAALTK(COCH2)I; thioether 2-19 (inferred)) [compound 158] | A (0.7 or more)
4 | 159 (ICVYTFDAHAHELHAALTK(COCH2)I; thioether 2-19 (inferred)) [compound 159] | A (0.7 or more)
5 | 160 (ICVYTFDAHAHRLHAALTK(COCH2)I; thioether 2-19 (inferred)) [compound 160] | C (0.1 or more and less than 0.5)
6 | 161 (ICVYTFDAHAHHLHAALTK(COCH2)I; thioether 2-19 (inferred)) [compound 161] | C (0.1 or more and less than 0.5)
7 | 162 (ICVYTFDAHAHSAHAALTK(COCH2)I; thioether 2-19 (inferred)) [compound 162] | A (0.7 or more)
8 | 163 (ICVYTFDAHAHSGHAALTK(COCH2)I; thioether 2-19 (inferred)) [compound 163] | C (0.1 or more and less than 0.5)
9 | 164 (ICVYTFDAHAHSPHAALTK(COCH2)I; thioether 2-19 (inferred)) [compound 164] | C (0.1 or more and less than 0.5)
10 | 165 (ICVYTFDAHAHSIHAALTK(COCH2)I; thioether 2-19 (inferred)) [compound 165] | A (0.7 or more)
11 | 166 (ICVYTFDAHAHSVHAALTK(COCH2)I; thioether 2-19 (inferred)) [compound 166] | A (0.7 or more)
12 | 167 (ICVYTFDAHAHSFHAALTK(COCH2)I; thioether 2-19 (inferred)) [compound 167] | A (0.7 or more)
13 | 168 (ICVYTFDAHAHSYHAALTK(COCH2)I; thioether 2-19 (inferred)) [compound 168] | A (0.7 or more)
14 | 169 (ICVYTFDAHAHSWHAALTK(COCH2)I; thioether 2-19 (inferred)) [compound 169] | C (0.1 or more and less than 0.5)
15 | 170 (ICVYTFDAHAHSQHAALTK(COCH2)I; thioether 2-19 (inferred)) [compound 170] | C (0.1 or more and less than 0.5)
16 | 171 (ICVYTFDAHAHSSHAALTK(COCH2)I; thioether 2-19 (inferred)) [compound 171] | B (0.5 or more and less than 0.7)
17 | 172 (ICVYTFDAHAHSTHAALTK(COCH2)I; thioether 2-19 (inferred)) [compound 172] | B (0.5 or more and less than 0.7)
18 | 173 (ICVYTFDAHAHSEHAALTK(COCH2)I; thioether 2-19 (inferred)) [compound 173] | C (0.1 or more and less than 0.5)
19 | 174 (ICVYTFDAHAHSRHAALTK(COCH2)I; thioether 2-19 (inferred)) [compound 174] | C (0.1 or more and less than 0.5)
20 | 175 (ICVYTFDAHAHSHHAALTK(COCH2)I; thioether 2-19 (inferred)) [compound 175] | B (0.5 or more and less than 0.7)
21 | 176 (ICVYTFDAHAHSLAAALTK(COCH2)I; thioether 2-19 (inferred)) [compound 176] | A (0.7 or more)
22 | 177 (ICVYTFDAHAHSLGAALTK(COCH2)I; thioether 2-19 (inferred)) [compound 177] | A (0.7 or more)
23 | 178 (ICVYTFDAHAHSLPAALTK(COCH2)I; thioether 2-19 (inferred)) [compound 178] | A (0.7 or more)
24 | 179 (ICVYTFDAHAHSLLAALTK(COCH2)I; thioether 2-19 (inferred)) [compound 179] | B (0.5 or more and less than 0.7)
25 | 180 (ICVYTFDAHAHSLIAALTK(COCH2)I; thioether 2-19 (inferred)) [compound 180] | B (0.5 or more and less than 0.7)
26 | 181 (ICVYTFDAHAHSLVAALTK(COCH2)I; thioether 2-19 (inferred)) [compound 181] | B (0.5 or more and less than 0.7)
27 | 182 (ICVYTFDAHAHSLFAALTK(COCH2)I; thioether 2-19 (inferred)) [compound 182] | C (0.1 or more and less than 0.5)
28 | 183 (ICVYTFDAHAHSLYAALTK(COCH2)I; thioether 2-19 (inferred)) [compound 183] | B (0.5 or more and less than 0.7)
29 | 184 (ICVYTFDAHAHSLWAALTK(COCH2)I; thioether 2-19 (inferred)) [compound 184] | C (0.1 or more and less than 0.5)
30 | 185 (ICVYTFDAHAHSLNAALTK(COCH2)I; thioether 2-19 (inferred)) [compound 185] | A (0.7 or more)

The next lines start with the values.

Row | Evaluation result of binding affinity to FGFR | Substance
31 | A (0.7 or more) | 186 (ICVYTFDAHAHSLQAALTK(COCH2)I; thioether 2-19 (inferred)) [compound 186]
32 | A (0.7 or more) | 187 (ICVYTFDAHAHSLSAALTK(COCH2)I; thioether 2-19 (inferred)) [compound 187]
33 | A (0.7 or more) | 188 (ICVYTFDAHAHSLTAALTK(COCH2)I; thioether 2-19 (inferred)) [compound 188]
34 | A (0.7 or more) | 189 (ICVYTFDAHAHSLDAALTK(COCH2)I; thioether 2-19 (inferred)) [compound 189]
35 | A (0.7 or more) | 190 (ICVYTFDAHAHSLEAALTK(COCH2)I; thioether 2-19 (inferred)) [compound 190]
36 | B (0.5 or more and less than 0.7) | 191 (ICVYTFDAHAHSLRAALTK(COCH2)I; thioether 2-19 (inferred)) [compound 191]
37 | A (0.7 or more) | 192 (ICVYTFDAHAHSLHGALTK(COCH2)I; thioether 2-19 (inferred)) [compound 192]
38 | C (0.1 or more and less than 0.5) | 193 (ICVYTFDAHAHSLHLALTK(COCH2)I; thioether 2-19 (inferred)) [compound 193]
39 | C (0.1 or more and less than 0.5) | 194 (ICVYTFDAHAHSLHIALTK(COCH2)I; thioether 2-19 (inferred)) [compound 194]
40 | C (0.1 or more and less than 0.5) | 195 (ICVYTFDAHAHSLHVALTK(COCH2)I; thioether 2-19 (inferred)) [compound 195]
41 | C (0.1 or more and less than 0.5) | 196 (ICVYTFDAHAHSLHFALTK(COCH2)I; thioether 2-19 (inferred)) [compound 196]
42 | C (0.1 or more and less than 0.5) | 197 (ICVYTFDAHAHSLHYALTK(COCH2)I; thioether 2-19 (inferred)) [compound 197]
43 | C (0.1 or more and less than 0.5) | 198 (ICVYTFDAHAHSLHWALTK(COCH2)I; thioether 2-19 (inferred)) [compound 198]
44 | A (0.7 or more) | 199 (ICVYTFDAHAHSLHNALTK(COCH2)I; thioether 2-19 (inferred)) [compound 199]
45 | A (0.7 or more) | 200 (ICVYTFDAHAHSLHQALTK(COCH2)I; thioether 2-19 (inferred)) [compound 200]
46 | A (0.7 or more) | 201 (ICVYTFDAHAHSLHSALTK(COCH2)I; thioether 2-19 (inferred)) [compound 201]
47 | A (0.7 or more) | 202 (ICVYTFDAHAHSLHTALTK(COCH2)I; thioether 2-19 (inferred)) [compound 202]
48 | A (0.7 or more) | 203 (ICVYTFDAHAHSLHDALTK(COCH2)I; thioether 2-19 (inferred)) [compound 203]
49 | A (0.7 or more) | 204 (ICVYTFDAHAHSLHEALTK(COCH2)I; thioether 2-19 (inferred)) [compound 204]
50 | A (0.7 or more) | 205 (ICVYTFDAHAHSLHRALTK(COCH2)I; thioether 2-19 (inferred)) [compound 205]
51 | A (0.7 or more) | 206 (ICVYTFDAHAHSLHHALTK(COCH2)I; thioether 2-19 (inferred)) [compound 206]
52 | C (0.1 or more and less than 0.5) | 207 (ICVYTFDAHAHSLHAILTK(COCH2)I; thioether 2-19 (inferred)) [compound 207]
53 | C (0.1 or more and less than 0.5) | 208 (ICVYTFDAHAHSLHAVLTK(COCH2)I; thioether 2-19 (inferred)) [compound 208]
54 | C (0.1 or more and less than 0.5) | 209 (ICVYTFDAHAHSLHASLTK(COCH2)I; thioether 2-19 (inferred)) [compound 209]
55 | C (0.1 or more and less than 0.5) | 210 (ICVYTFDAHAHSLHAAITK(COCH2)I; thioether 2-19 (inferred)) [compound 210]
56 | C (0.1 or more and less than 0.5) | 211 (ICVYTFDAHAHSLHAAVTK(COCH2)I; thioether 2-19 (inferred)) [compound 211]
57 | C (0.1 or more and less than 0.5) | 212 (ICVYTFDAHAHSLHAAFTK(COCH2)I; thioether 2-19 (inferred)) [compound 212]
